B1: HIG-1-Flag (human HIG-1 polypeptide with a Flag tag downstream, made in E. coli as GST-HIG-1-Flag, GST cleaved off with PreScission Protease) (other, UniProt Q9Y241 1-93, looked up)
chain: MSTDTGVSLPSYEEDQGSKLIRKAKEAPFVPVGIAGFAAIVAYGLYKLKSRGNTKMSIHLIHMRVAAQGFVVGAMTVGMGYSMYREFWAKPKP
notes: Expressed from pGST-HIG-1-Flag (pGEX 6P-1); also called HIG-1-Flag protein; not shown: Flag tag downstream of HIG-1
B2: monoclonal antibody produced by hybridoma ISK-MMH-TK1 (antibody, V domains shown)
VH: EVQLQQSGPELVKPGASVKISCKTSGYTFTKYTMHWVKQSHGKSLEWIGGINPNNGGSRYDQKFRGKATLTVDKSSSTAYMEFRSLTSEDSAVYYCARDFVYWGQGTLVTVSA
VL: DVLMTQTPLSLPVSLGDQASISCRSSQSIVHSNGNTYLEWYLQKPGQSPKLLIYKVSNRFSGVPDRFSGSGSGTDFTLKISRVEAEDLGVYYCFQGSHVPWTFGGGTKLEIKR
notes: used as hybridoma culture supernatant; The whole entries are named; they hold leader and primer-derived residues, X and * that are not part of the mature antibody; also called FERM BP-11267
B3: monoclonal antibody produced by hybridoma ISK-MMH-TK2 (antibody, V domains shown)
VH: DVQLQDSGPGLVKPSQTVSLTCTVTGISITTGNFRWSWIRQFPGNKLEWIGYIYYSGTITYNPSLTSRTTITRDTSKNQFFLEMNSLTAEDTATYYCARELYGYGYFDVWAAGTTVTVSS
VL: DVVMTQIPLSLPVSLGDQASISCRSTQSLVHSNGNTYLHWFLQKPGQSPKLLIYKVSNRFSGVPDRFSGSGSGTDFTLKISRVEAEDLGVYFCSQSKYVPRTFGGGTKLEIKR
notes: used as hybridoma culture supernatant; The whole entries are named; they hold leader and primer-derived residues, X and *; also called FERM BP-11266

Key:
[1] = molecular target: B3; assay: competitive ELISA: HIG-1-Flag coated at 2.5 µg/mL, ISK-MMH-TK2 culture supernatant (diluted 3,200-fold) premixed with soluble HIG-1-Flag as competing agent, AP-labelled anti-mouse IgG, A405nm
Description: Specifically, the HIG-1-Flag obtained in Example 2 as a solid-phase antigen was coated at a concentration of 2.5 μg/mL (50 mM carbonate buffer solution, pH 9.6, Sigma, No. C3041) in an amount of 50 μL per well, onto a plate at room temperature for 1 hour. Washing was performed 3 times with PBS-T, and then blocking was conducted with PBS (10% FBS-PBS) containing 10% FBS for 1 hour. After washing was performed 3 times with PBS-T, the PBS-T diluent of the antibody culture supernatant obtained in Example 1 was mixed with a diluted solution of a competitive substance (serial dilution with PBS-T) and reacted at room temperature for 1 hour. The reaction mixture was placed in a plate in an amount of 50 W., per well and allowed to stand for 1 hour at room temperature. […] As competitive substances, a HIG-1-Flag (on which 3-fold serial dilution was performed 8 times from 0.167 μg/mL), KLH (on which 3-fold serial dilution was performed 8 times from 100 μg/mL), or GST (on which 3-fold serial dilution was performed 8 times from 100 μg/mL) was used. After washing was performed using PBS-T 3 times, the alkaline phosphatase-labeled secondary antibody (anti-mouse IgG) diluted 1,000-fold with 10% FBS-PBS-T was placed in an amount of 50 per well and allowed to stand at room temperature for 1 hour. […] After reaction, the 405 nm absorbance was measured.

[2] = molecular target: B1; assay: competitive ELISA, coated HIG-1-Flag, soluble HIG-1-Flag as competitor
Description: Specifically, the HIG-1-Flag obtained in Example 2 as a solid-phase antigen was coated at a concentration of 2.5 μg/mL (50 mM carbonate buffer solution, pH 9.6, Sigma, No. C3041) in an amount of 50 μL per well, onto a plate at room temperature for 1 hour. Washing was performed 3 times with PBS-T, and then blocking was conducted with PBS (10% FBS-PBS) containing 10% FBS for 1 hour. After washing was performed 3 times with PBS-T, the PBS-T diluent of the antibody culture supernatant obtained in Example 1 was mixed with a diluted solution of a competitive substance (serial dilution with PBS-T) and reacted at room temperature for 1 hour. The reaction mixture was placed in a plate in an amount of 50 W., per well and allowed to stand for 1 hour at room temperature. […] After reaction, the 405 nm absorbance was measured.
These antibodies were both capable of quantitatively measuring a HIG-1-Flag in the range of 0.7 to 6.2 ng/mL. The dissociation constant Kd of the monoclonal antibody to a HIG-1-Flag was calculated with reference to “Antibody engineering; A Practical Approach” (edited by McCafferty J., et al.), Chapter 4, 77-97, IRL Press Oxford.

| Binder | IC50 (read off the curve) [1] [ng/mL] | Kd [2] [pM] |
| --- | --- | --- |
| B1 | ~2 | – |
| B2 | – | 220 |
| B3 | – | 170 |

Reference: US20120244560A1 (ISHIHARA SANGYO, published 2012)
